Holding throughout (settings): remark: other sources report otherwise
For assay [1], the target named is recombinant soluble homotrimeric HA of A/Anhui/1/05 (H5N1) (Influenza A virus A/Anhui/1/2005(H5N1)). Nature of the assay: HA microarray, control antibody.
The target of assay [2] is recombinant soluble homotrimeric HA of A/California/4/09 (H1N1) (Influenza A virus A/California/04/2009(H1N1)). The experiment in a line: HA microarray, control antibody.
Assay [3] has as its target recombinant soluble homotrimeric HA of A/Egypt/3300-NAMRU3/08 (H5N1) (Influenza A virus A/Egypt/3300-NAMRU3/2008(H5N1)). The experiment in a line: HA microarray, control antibody.
Assay [4] has as its target recombinant soluble homotrimeric HA of A/Indonesia/5/05 (H5N1) (Influenza A virus A/Indonesia/5/2005(H5N1)). The experiment in a line: HA microarray, control antibody.
For assay [5], the target named is recombinant soluble homotrimeric HA of A/Japan/305/57 (H2N2) (Influenza A virus A/Japan/305/1957(H2N2)). Nature of the assay: HA microarray, control antibody.
Assay [6] concerns the target recombinant soluble homotrimeric HA of A/Netherlands/219/03 (H7N7) (Influenza A virus A/Netherlands/219/03(H7N7)). The experiment in a line: HA microarray, control antibody.
Assay [7] deals with recombinant soluble homotrimeric HA of A/Solomon Islands/3/06 (H1N1) (Influenza A virus A/Solomon Islands/3/2006(H1N1)). The experiment in a line: HA microarray, control antibody.
In assay [8] the target is T1, recombinant soluble homotrimeric HA of A/Wisconsin/67/05 (H3N2) (Influenza A virus A/Wisconsin/67/2005(H3N2)). Nature of the assay: HA microarray, control antibody.
In assay [9] the target is T2, recombinant soluble homotrimeric HA of A/duck/Yangzhou/02/05 (H8N4) (Influenza A virus A/duck/Yangzhou/02/2005(H8N4)). Nature of the assay: HA microarray, control antibody.
Assay [10] deals with T3, recombinant soluble homotrimeric HA of A/swine/Ontario/01911-2/99 (H4N6) (Influenza A virus A/Swine/Ontario/01911-2/99 (H4N6)). Nature of the assay: HA microarray, control antibody.
The target of assay [11] is T1, recombinant soluble homotrimeric HA of …. The experiment in a line: trimeric HA microarray, transfection supernatant set 1.
For assay [12], the target named is T2, recombinant soluble homotrimeric HA of …. The description is as above.
The target of assay [13] is T3, recombinant soluble homotrimeric HA of …. The description is as above.
Assay [14] deals with recombinant soluble homotrimeric HA of A/Hong Kong/1073/99 (H9N2) (Influenza A virus A/Hong Kong/1073/99 (H9N2)). Described as above.
Assay [15] deals with recombinant soluble homotrimeric HA of A/Hong Kong/2108/03 (H9N2) (Influenza A virus A/HK/2108/2003(H9N2)). The assay is described as above.
Assay [16] has as its target recombinant soluble homotrimeric HA of A/northern shoveler/California/HKWF115/07 (H6) (Influenza A virus A/northern shoveler/California/HKWF115/2007(H6N1)). The description is as above.

B1: TCN-504 (3251_K17) (antibody, V domains shown)
VH: QVQLQESGPGLVKPSETLSLTCAVSGVSISNIDFYWGWIRQPPGKGLEWIGNIYYTGITFYNPSLSSRVAISIDTSKNQFSLTLTSVTAADTAMYYCARHYGDSEAINDAFDIWGQGTMLTVSS
VL: EIVMTQSPATLSVSPGERATLSCRASQSVGNSLAWYQQRPGQAPRLLIYGASTRATGIPPRFSGSGSGTEFTLTISSLQTEDFAVYYCQQYINWRPLSFGGGTKVEIK
For B1, the Trimeric HA Binding: RLU in [1] was found to be 26200 RLU; in assay [2] it was 3330 RLU; in [3] it was 44400 RLU; in assay [4], 43300 RLU; in assay [5] it was 4090 RLU; in [6] it was 47200 RLU. In addition, the Trimeric HA Binding: RLU was determined as 24100 RLU in assay [7]; 40500 RLU in assay [8]; 14100 RLU in assay [9]; 14700 RLU in [10]; 14300 RLU in assay [11]; 28900 RLU in [12]. Besides, in assay [13], the Trimeric HA Binding: RLU worked out at 26500 RLU.

B2: TCN-523 (5248_A17) (antibody, V domains shown)
VH: QVQLVQSGAEVKKPGSSVKVSCKASGGSFSNYAFSWVRQAPGQGLEWMGGTIPLLGTTNYAQKFQGRVTISADQFTSTAYMELGSLRSEDTAVYYCTRRKMTTAFDSWGQGTLVTVSS
VL: QPVLTQPPSASASLGASVTLTCTLSSAYSNYKVDWYQQRPGKGPRFVMRVGTGGIVGSKGDGIPDRFSVLGSGLNRYLTIKNIQEEDESDYHCGADHGSGSNFVSPYVFGGGTKLTVL
For B2, the values for the Trimeric HA Binding: RLU in assay [14], in [15] and in assay [16] were 21700 RLU, 41 RLU and 9050 RLU, respectively.

For the origin of these results see US20150086555A1.
